Results taken from the supplement of paper PMC7125110.
± gives the standard error. Variants at the floor of the assay were thinned out.

B1: glmS ribozyme (parent)
chain: AUAAAAGCGCCAGAACUACAGAAAUGUAGUUGACGAGGAGGAGGUUUAUCGAAUUUUCGGCGGAUGCCUCCAAA

Key:
Conditions in all cases: with glucosamine-6-phosphate
glucosamine-6-phosphate [1] = variants of: B1; assay: self-cleavage kobs at 40 uM GlcN6P; higher = faster cleavage; RNA array
How it was run: (§1)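 Tiles bearing barcoded ribozyme variants, transcribed in situ by E. coli RNA polymerase on sequenced MiSeq chips, were imaged over ~14 h at 37 °C using a hybridised Cy3 probe. Glucosamine-6-phosphate was supplied at 40 μM to 10 mM in HEPES/KCl/Mg(OAc)2 buffer. kobs came from one- or two-exponential decay fits to normalised per-tile medians, and weighted Michaelis–Menten fits then provided kcat and KM.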

glucosamine-6-phosphate [2] = variants of: B1; assay: self-cleavage kobs at 10000 uM GlcN6P; higher = faster cleavage; RNA array
How it was run: as §1

glucosamine-6-phosphate [3] = variants of: B1; assay: self-cleavage kobs at 160 uM GlcN6P; higher = faster cleavage; RNA array
How it was run: as §1

glucosamine-6-phosphate [4] = variants of: B1; assay: self-cleavage kobs at 640 uM GlcN6P; higher = faster cleavage; RNA array
How it was run: as §1

glucosamine-6-phosphate [5] = variants of: B1; assay: self-cleavage kobs at 2500 uM GlcN6P; higher = faster cleavage; RNA array
How it was run: as §1

Row | Variant | self-cleavage kobs at 40 uM GlcN6P (glucosamine-6-phosphate [1]) | self-cleavage kobs at 10000 uM GlcN6P (glucosamine-6-phosphate [2]) | self-cleavage kobs at 160 uM GlcN6P (glucosamine-6-phosphate [3]) | self-cleavage kobs at 640 uM GlcN6P (glucosamine-6-phosphate [4]) | self-cleavage kobs at 2500 uM GlcN6P (glucosamine-6-phosphate [5])
1 | AUAAAAUCGCCAGAACUACAGAAAUGUAGUUGACGAGGAGGAGGUUUAUCGAAUUUUAGGCGGAUGGCUUCAAA | 9.59e-05 ± 3.4e-05 s⁻¹ |  |  |  | 
2 | AUAAAAUCGCCAGAACUACAGAAAUGUAGUUGACGAGGAGGUGCUUUAUCGAAUUUUCGGCGGAUGCCUCCAAA | < 1e-05 s⁻¹ | < 1e-05 s⁻¹ |  |  | 
3 | AUAAAAUGGCCAGAACUACAGAAAUGUAGUUGACGAGGAGGAGGUUGAUCGAAUUUUUGGGGGAUGCCGCCAAA | 0.000436 ± 0.00012 s⁻¹ | 0.000464 ± 0.00012 s⁻¹ |  |  | 
4 | AUAAAAUCGCCAGAACUACAGAAAUGUAGUUGACGAGGAGGAGGUUUAUCGGAUUUUCGGCGGAUGCGUCCAAA | 0.000127 ± 4.6e-05 s⁻¹ | 0.000484 ± 0.00022 s⁻¹ |  |  | 
5 | AUAAAAUCACCAGUACUACAGAAAUGUAGUUGACGAGGAGGAGGUUUAUGGAAUUUUCGGCGGAUGCCUCCAAA | 0.000146 ± 5.4e-05 s⁻¹ | 0.000226 ± 5.3e-05 s⁻¹ | 0.000138 ± 3.6e-05 s⁻¹ | 0.000267 ± 5.8e-05 s⁻¹ | 0.000647 ± 0.00016 s⁻¹
6 | AUAAAAUCGCCAGAACUACAGAAAUGUAGUUGACGAGGAGGGGGUUUAUCGAAUUUUCGGCGGAUGCCUCCAAA | < 1e-05 s⁻¹ | < 1e-05 s⁻¹ | < 1e-05 s⁻¹ | < 1e-05 s⁻¹ | < 1e-05 s⁻¹
7 | AUAAAAUCGCCAGAACUACAGAAAUGUAGUUGACGAGGAGGAGGUUUAUGGAAUUUUCGGCGGAUGCCUCCAAA | 0.000281 ± 8.4e-05 s⁻¹ |  | 0.000551 ± 0.00024 s⁻¹ |  | 0.0008 ± 0.00024 s⁻¹
8 | AUAAAAUCGACAGAUCUACAGAAAUGUAGUUGACGAGGAGGAGGUUUAUCGAAUUUUCGGCGGAUGCCUCCAAA | < 1e-05 s⁻¹ |  |  | < 1e-05 s⁻¹ | < 1e-05 s⁻¹
9 | AUAAAAUCUCCAGAACUACAGAAAUGUAGUUGACGAGGAGGAGGUUUAUCGAAUUUUCGGCGGAUGCCUCCAAA | < 1e-05 s⁻¹ | < 1e-05 s⁻¹ | < 1e-05 s⁻¹ | < 1e-05 s⁻¹ | < 1e-05 s⁻¹
10 | AUAAAAUCGCCAGAACUACAGAAAUGUAGUUGACGAGGAGGAGGUUUUUCGAAUUUUCGGCGGAUGCCUCCAAA | < 1e-05 s⁻¹ | < 1e-05 s⁻¹ | < 1e-05 s⁻¹ | < 1e-05 s⁻¹ | < 1e-05 s⁻¹
11 | AUAAAAUAGCCAGAACUACAGAAAUGUAGUUGUCGAGGAGGAAGUUUAUCGAAUAUUCGGCGGAUGCCUCCAAA | < 1e-05 s⁻¹ | < 1e-05 s⁻¹ |  | < 1e-05 s⁻¹ | < 1e-05 s⁻¹
12 | AUAAAAUCGCCAGAACUACAGAAAUGUAGUUGACGAGGAGGAGGUUUAUCGAAUUUUCGGCGGAUGCCUGGAAA | 4.02e-05 ± 2e-05 s⁻¹ |  |  | 0.000251 ± 8.1e-05 s⁻¹ | 
13 | AUAAAAUCGCCAGAAUUACAGAAAUGUACUUGACGAGGAGGAGGUUUAUCGAAAUUUCGGCGGAUGCCUCCAAA | < 1e-05 s⁻¹ |  |  |  | < 1e-05 s⁻¹
14 | AUAAAAUCGCCAGAACUACAGAAAUGUAGUUGACGAGGGGGAGGUUUAUCGAAUUUUCGGCGGAUGCCUCCAAA | < 1e-05 s⁻¹ | < 1e-05 s⁻¹ | < 1e-05 s⁻¹ | < 1e-05 s⁻¹ | < 1e-05 s⁻¹
15 | AUAAAAUCGCCAGAACUACAGAAAUGUAGUUGACGAGGCGGAGGUUUAUCGAAUUUUCGGCGGAUGCCUCCAAA | < 1e-05 s⁻¹ | < 1e-05 s⁻¹ | < 1e-05 s⁻¹ | < 1e-05 s⁻¹ | 
16 | AUAAAAUCGCCAGAACUACAGAAAUGUAGUUGACGAGGAGGAGGUUUAUCGUAUUUUCGGCGGAUGCCUCCAAA | < 1e-05 s⁻¹ | < 1e-05 s⁻¹ |  | < 1e-05 s⁻¹ | < 1e-05 s⁻¹
17 | AUAAAAUCGCCAUAACUACAGAAAUGUAGUUGACGAGGAGGAGGUUUAUCGAGUUUUCGGCGGAUGCCUCCAAA | < 1e-05 s⁻¹ |  |  |  | 
18 | AUAAAAUCGCCAGAACUACAGAAAUGUACUUGACGAGGAGGAGGUUUAUCGAAUUUUCGGUGGAUGCCUCCAAA | < 1e-05 s⁻¹ |  |  |  | 
19 | AUAAAAUCGCCAGAACUACAGAAAUGUACUUGACGAGGAGGAGGUUUAUCGAAUUUUCGGCGGAUGCCUCCAAA | < 1e-05 s⁻¹ | < 1e-05 s⁻¹ | < 1e-05 s⁻¹ | < 1e-05 s⁻¹ | < 1e-05 s⁻¹
20 | AUAAAAUCACCAGAACUACAGAAAUGUAGUUGACGAGGAGGAGGUUUAUCGAAUUUGCGGCGGAUGACUCCAAA | < 1e-05 s⁻¹ |  |  |  | 
21 | AUAAAAUCGCCAGAACUACAGAAAUGUAGUUGACGAGGAGGAGGUUUAUGGAAUUUUCGGCGGAUGCGUCCAAA | 0.000115 ± 2e-05 s⁻¹ | 0.000186 ± 3.4e-05 s⁻¹ | 0.000493 ± 0.00019 s⁻¹ |  | 0.000185 ± 6.6e-05 s⁻¹
22 | AUAAAAUCGCCAGAACUACAGAAAUGUAGUUGACGAGGAGGAGGUUUUUCGAAUUUUCGCCGGAUGCCUCCAAA | < 1e-05 s⁻¹ |  |  |  | 
23 | AUAAAAUCGCCAGAACUAAAGAAAUGUAGUUGACGAGGAGGAGGUUUAUCGAAUUUUCGGCGGAUGCCUCCAAA | < 1e-05 s⁻¹ |  | < 1e-05 s⁻¹ | < 1e-05 s⁻¹ | < 1e-05 s⁻¹
24 | AUAAAAUCGCCAGAACUACAGAAAUGUAGUUGAUGAGGAGGAGGUUUAUCGAAUUUUCGGCGGAUGCCUCCAAA | < 1e-05 s⁻¹ |  |  |  | < 1e-05 s⁻¹
25 | AUAAAAUCGCCAAAACUACAGAAAUGUAGUUGACGAGGAGGAGGUUUAUCGAAUUUUCGGCGGAUGUCUCCAAA | < 1e-05 s⁻¹ |  |  |  | 
